Patent US11278600B2, “Human alpha-galactosidase variants” (Codexis, Inc., priority 2014, dated 2022)
Substitutions are numbered along the chain they refer to.

B1: 37 (protein)
chain: LDNGLARTPTMGWLHWERFMCNLDCQEEPDSCISEKLFMEMAELMVSEGWKDAGYEYLCIDDCWMAPQRDSEGRLQADPQRFPHGIRQLANYVHSKGLKLGIYAAVGNKTCAGFPGSFGYYDIDAQTFADWGVDLLKFDGCYCDSLENLADGYKHMSLALNRTGRSIVYSCEWPLYMWPFQKPNYTEIRQYCNHWRNFADIDDSWKSIKSILDWTSFNQERIVDVAGPGGWNDPDMLVIGNFGLSWNQQVTQMALWAIMAAPLFMSNDLRHISPQAKALLQDKDVIAINQDPLGKQGYQLRQGDNFEVWERPLSGLAWAVAMINRQEIGGPRSYTIAVASLGKGVACNPACFITQLLPVKRKLGFYEWTSRLRSHINPTGTVLLQLENTMQMSKDLLL
modifications: Synthetic Polypeptide sequence of Variant No. 37 of mature Human GLA
B2: 146 (protein)
chain: B1 chain with Q88F, A105D
modifications: Synthetic Polypeptide sequence of Variant No. 146 of mature Human GLA
B3: 154 (protein)
chain: B1 chain with A105D, R301I, K362T
modifications: Synthetic Polypeptide sequence of Variant No. 154 of mature Human GLA
B4: 153 (protein)
chain: B1 chain with A105D, R221T
modifications: Synthetic Polypeptide sequence of Variant No. 153 of mature Human GLA
B5: 144 (protein)
chain: B1 chain with Q80V, A105D
modifications: Synthetic Polypeptide sequence of Variant No. 144 of mature Human GLA
B6: 156 (protein)
chain: B1 chain with A105D, R371S
modifications: Synthetic Polypeptide sequence of Variant No. 156 of mature Human GLA
B7: 150 (protein)
chain: B1 chain with A105D, R162H
modifications: Synthetic Polypeptide sequence of Variant No. 150 of mature Human GLA
B8: 143 (protein)
chain: B1 chain with Q80H, A105D
modifications: Synthetic Polypeptide sequence of Variant No. 143 of mature Human GLA
B9: 152 (protein)
chain: B1 chain with A105D, R221K, A350G
modifications: Synthetic Polypeptide sequence of Variant No. 152 of mature Human GLA
B10: 149 (protein)
chain: B1 chain with Q88S, A105D
modifications: Synthetic Polypeptide sequence of Variant No. 149 of mature Human GLA
B11: 151 (protein)
chain: B1 chain with A105D, R162S
modifications: Synthetic Polypeptide sequence of Variant No. 151 of mature Human GLA
B12: 155 (protein)
chain: B1 chain with A105D, R301L
modifications: Synthetic Polypeptide sequence of Variant No. 155 of mature Human GLA
B13: 147 (protein)
chain: B1 chain with Q88H, A105D
modifications: Synthetic Polypeptide sequence of Variant No. 147 of mature Human GLA
B14: 38 (protein)
chain: B1 chain with A105S
modifications: Synthetic Polypeptide sequence of Variant No. 38 of mature Human GLA
B15: 145 (protein)
chain: B1 chain with Q88A, A105D
modifications: Synthetic Polypeptide sequence of Variant No. 145 of mature Human GLA
B16: 148 (protein)
chain: B1 chain with Q88R, A105D
modifications: Synthetic Polypeptide sequence of Variant No. 148 of mature Human GLA

Test: HTP-analysis of supernatants pretreated with acid (MUGal hydrolysis)
Type: biochemical
Conditions: challenge at pH 4.2; activity of the variant/activity of WT GLA (SEQ ID NO: 5); yeast supernatant
How it was run: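 Yeast INVSc1 supernatant, GLA variants; acid challenge: McIlvaine pH 3.3-4.3, 37° C., 1-3 h. Assay: MUGal in McIlvaine pH 4.8 plus citrate pH 4.3, 37° C., 30-180 min, Na2CO3 stop, Ex 355/Em 448 nm.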

Molecule	Relative Activity of GLA Variants After Challenge at pH 4.2
B1	+ (+ = 0.5 to 1.5 relative activity over WT GLA (SEQ ID NO: 5))
B2	+ (+ = 0.5 to 1.5 relative activity over WT GLA (SEQ ID NO: 5))
B3	+ (+ = 0.5 to 1.5 relative activity over WT GLA (SEQ ID NO: 5))
B4	+ (+ = 0.5 to 1.5 relative activity over WT GLA (SEQ ID NO: 5))
B5	++ (++ = >1.5 to 2.5 relative activity over WT GLA (SEQ ID NO: 5))
B6	+ (+ = 0.5 to 1.5 relative activity over WT GLA (SEQ ID NO: 5))
B7	+ (+ = 0.5 to 1.5 relative activity over WT GLA (SEQ ID NO: 5))
B8	+ (+ = 0.5 to 1.5 relative activity over WT GLA (SEQ ID NO: 5))
B9	++ (++ = >1.5 to 2.5 relative activity over WT GLA (SEQ ID NO: 5))
B10	+ (+ = 0.5 to 1.5 relative activity over WT GLA (SEQ ID NO: 5))
B11	+ (+ = 0.5 to 1.5 relative activity over WT GLA (SEQ ID NO: 5))
B12	+ (+ = 0.5 to 1.5 relative activity over WT GLA (SEQ ID NO: 5))
B13	++ (++ = >1.5 to 2.5 relative activity over WT GLA (SEQ ID NO: 5))
B14	+ (+ = 0.5 to 1.5 relative activity over WT GLA (SEQ ID NO: 5))
B15	+ (+ = 0.5 to 1.5 relative activity over WT GLA (SEQ ID NO: 5))
B16	++ (++ = >1.5 to 2.5 relative activity over WT GLA (SEQ ID NO: 5))

Test: HTP-analysis of yeast culture supernatants, no challenge (MUGal hydrolysis)
Type: biochemical
Conditions: activity of the variant/activity of WT GLA (SEQ ID NO: 5), yeast supernatant
How it was run: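 GLA variants expressed in yeast INVSc1, secreted into SD-Ura broth over 66-84 h at 30° C; clarified supernatants tested without challenge. Supernatant mixed with McIlvaine buffer pH 4.8 and 2 mM MUGal (citrate/KCl, pH 4.6), 37° C for 30-180 min, carbonate-quenched, fluorescence Ex 355/Em 448 nm.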

Molecule	Relative Activity of GLA Variants After No Challenge (NC)
B1	+ (+ = 0.5 to 1.5 relative activity over WT GLA (SEQ ID NO: 5))
B2	+ (+ = 0.5 to 1.5 relative activity over WT GLA (SEQ ID NO: 5))
B3	++ (++ = >1.5 to 2.5 relative activity over WT GLA (SEQ ID NO: 5))
B4	+ (+ = 0.5 to 1.5 relative activity over WT GLA (SEQ ID NO: 5))
B5	+ (+ = 0.5 to 1.5 relative activity over WT GLA (SEQ ID NO: 5))
B6	++ (++ = >1.5 to 2.5 relative activity over WT GLA (SEQ ID NO: 5))
B7	+ (+ = 0.5 to 1.5 relative activity over WT GLA (SEQ ID NO: 5))
B8	+ (+ = 0.5 to 1.5 relative activity over WT GLA (SEQ ID NO: 5))
B9	++ (++ = >1.5 to 2.5 relative activity over WT GLA (SEQ ID NO: 5))
B10	++ (++ = >1.5 to 2.5 relative activity over WT GLA (SEQ ID NO: 5))
B11	+ (+ = 0.5 to 1.5 relative activity over WT GLA (SEQ ID NO: 5))
B12	+ (+ = 0.5 to 1.5 relative activity over WT GLA (SEQ ID NO: 5))
B13	++ (++ = >1.5 to 2.5 relative activity over WT GLA (SEQ ID NO: 5))
B14	− (− = <0.5 relative activity to WT GLA (SEQ ID NO: 5))
B15	+ (+ = 0.5 to 1.5 relative activity over WT GLA (SEQ ID NO: 5))
B16	+ (+ = 0.5 to 1.5 relative activity over WT GLA (SEQ ID NO: 5))

Test: HTP-analysis of supernatants pretreated with base (MUGal hydrolysis)
Type: biochemical
Conditions: challenge at pH 7.1; activity of the variant/activity of WT GLA (SEQ ID NO: 5); yeast supernatant
How it was run: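 Supernatants from INVSc1 yeast expressing GLA variants (SD-Ura, 66-84 h, 30° C) were mixed with McIlvaine buffer pH 7.0-8.2 or 200 mM sodium bicarbonate pH 9.1-9.7 and held 1-18 h at 37° C. Residual activity was then measured on MUGal at pH 4.8/4.3, 37° C, 30-180 min, by fluorescence (Ex 355/Em 448 nm).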

Molecule	Relative Activity of GLA Variants After Challenge at pH 7.1
B1	+ (+ = 0.5 to 1.5 relative activity over WT GLA (SEQ ID NO: 5))
B2	+ (+ = 0.5 to 1.5 relative activity over WT GLA (SEQ ID NO: 5))
B3	++ (++ = >1.5 to 2.5 relative activity over WT GLA (SEQ ID NO: 5))
B4	++ (++ = >1.5 to 2.5 relative activity over WT GLA (SEQ ID NO: 5))
B5	+ (+ = 0.5 to 1.5 relative activity over WT GLA (SEQ ID NO: 5))
B6	++ (++ = >1.5 to 2.5 relative activity over WT GLA (SEQ ID NO: 5))
B7	+ (+ = 0.5 to 1.5 relative activity over WT GLA (SEQ ID NO: 5))
B8	+ (+ = 0.5 to 1.5 relative activity over WT GLA (SEQ ID NO: 5))
B9	++ (++ = >1.5 to 2.5 relative activity over WT GLA (SEQ ID NO: 5))
B10	++ (++ = >1.5 to 2.5 relative activity over WT GLA (SEQ ID NO: 5))
B11	+ (+ = 0.5 to 1.5 relative activity over WT GLA (SEQ ID NO: 5))
B12	+ (+ = 0.5 to 1.5 relative activity over WT GLA (SEQ ID NO: 5))
B13	++ (++ = >1.5 to 2.5 relative activity over WT GLA (SEQ ID NO: 5))
B14	− (− = <0.5 relative activity to WT GLA (SEQ ID NO: 5))
B15	+ (+ = 0.5 to 1.5 relative activity over WT GLA (SEQ ID NO: 5))
B16	+ (+ = 0.5 to 1.5 relative activity over WT GLA (SEQ ID NO: 5))
